Measurements from article PMC5053164.

Assay: aggregation after overnight glycosidase digestion
Details: glycan lost; control: untreated

B1: DORN1 extracellular domain (atDORN1-ECD; LecRK-I.9): Endo H (protein)
parent chain: MARWLLQILIISSLHLSSVSSQQETSFVYESFLDRQNLYLDKSAIVLPSGLLQLTNASEHQMGHAFHKKPIEFSSSGPLSFSTHFVCALVPKPGFEGGHGIVFVLSPSMDFTHAESTRYLGIFNASTNGSSSYHVLAVELDTIWNPDFKDIDHNHVGIDVNSPISVAIASASYYSDMKGSNESINLLSGNPIQVWVDYEGTLLNVSVAPLEVQKPTRPLLSHPINLTELFPNRSSLFAGFSAATGTAISDQYILWWSFSIDRGSLQRLDISKLPEVPHPRAPHKKVSTLIILLPVCLAILVLAVLAGLYFRRRRKYSEVSETWEKEFDAHRFSYRSLFKATKGFSKDEFLGKGGFGEVYRGNLPQGREIAVKRVSHNGDEGVKQFVAEVVSMRCLKHRNLVPLFGYCRRKRELLLVSEYMPNGSLDEHLFDDQKPVLSWSQRLVVVKGIASALWYLHTGADQVVLHRDVKASNIMLDAEFHGRLGDFGMARFHEHGGNAATTAAVGTVGYMAPELITMGASTGTDVYAFGVFMLEVTCGRRPVEPQLQVEKRHMIKWVCECWKKDSLLDATDPRLGGKFVAEEVEMVMKLGLLCSNIVPESRPTMEQVVLYLNKNLPLPDFSPYTLGIGTFAPVLVDASSLVVSSASWSLSGPSMSSSSPNHSPYAWQSTDQPWGQTIDTKNSLHIVAEPEKPSPAVKMVTLPAEDPQSNHSSISSQRVQPVKREKRRLHQILVAFPWINKQYFKLGLPKHIVHVSLFFFLQLARL
With B1 the stability_or_folding was “decreases”.
